Experimental data as given in patent US20110123508A1, “INSTRUMENT CLEANER” (NOVAPHARM RESEARCH (AUSTRALIA) PTY. LTD., priority 2008, published 2011).

Tests used:
Streptococcus mutan = test: Challenge test of 1:100 diluted cleaners with organic load, Streptococcus mutan; details: cleaner diluted 1:100, organic load, 40±1° C.
[1] = system: Staphylococcus aureus (ATCC 6538); test: Challenge test of 1:100 diluted cleaners with organic load, Staphylococcus aureus; details: cleaner diluted 1:100, organic load, 40±1° C.
[2] = system: Pseudomonas aeruginosa ATCC15442; test: Challenge test of 1:100 diluted cleaners with organic load, Pseudomonas aeruginosa

B1: Subtilisin Savinase 16L (protein, UniProt P29600 1-269, looked up)
Subtilisin Savinase: AQSVPWGISRVQAPAAHNRGLTGSGVKVAVLDTGISTHPDLNIRGGASFVPGEPSTQDGNGHGTHVAGTIAALNNSIGVLGVAPSAELYAVKVLGASGSGSVSSIAQGLEWAGNNGMHVANLSLGSPSPSATLEQAVNSATSRGVLVVAASGNSGAGSISYPARYANAMAVGATDQNNNRASFSQYGAGLDIVAPGVNVQSTYPGSTYASLNGTSMATPHVAGAAALVKQKNPSWSNVQIRNHLKNTATSLGSTNLYGSGLVNAEAATR
Concentration CFU/ml after time, 0 hrs (Streptococcus mutan; 0 hrs (initial)): 1.40E+07 CFU/ml
Concentration CFU/ml after time, 1 hr (Streptococcus mutan; 1 hr): 3.65E+07 CFU/ml
Concentration CFU/ml after time, 4 hrs (Streptococcus mutan; 4 hrs): 2.00E+06 CFU/ml
Concentration CFU/ml after time, 6 hrs (Streptococcus mutan; 6 hrs): 1.60E+06 CFU/ml
Concentration CFU/ml after time, 24 hrs (Streptococcus mutan; 24 hrs): 1.16E+06 CFU/ml
Concentration CFU/ml after time, 0 hrs ([1]; 0 hrs (initial)): 4.21E+07 CFU/ml
Concentration CFU/ml after time, 1 hr ([1]; 1 hr): 1.58E+08 CFU/ml
Concentration CFU/ml after time, 4 hrs ([1]; 4 hrs): 1.26E+08 CFU/ml
Concentration CFU/ml after time, 6 hrs ([1]; 6 hrs): 2.00E+08 CFU/ml
Concentration CFU/ml after time, 24 hrs ([1]; 24 hrs): 7.94E+07 CFU/ml
Concentration CFU/ml after time, 0 hrs ([2]; 0 hrs (initial), cleaner diluted 1:100, organic load, 40±1° C.): 2.94E+06 CFU/ml
Concentration CFU/ml after time, 1 hr ([2]; 1 hr, cleaner diluted 1:100, organic load, 40±1° C.): 3.69E+08 CFU/ml
Concentration CFU/ml after time, 4 hr ([2]; 4 hr, cleaner diluted 1:100, organic load, 40±1° C.): 2.06E+09 CFU/ml
Concentration CFU/ml after time, 6 hrs ([2]; 6 hrs, cleaner diluted 1:100, organic load, 40±1° C.): 3.80E+09 CFU/ml
Concentration CFU/ml after time, 24 hrs ([2]; 24 hrs, cleaner diluted 1:100, organic load, 40±1° C.): 1.46E+11 CFU/ml
reduction of microorganisms by single component alone ([2]; protease or phenoxyethanol alone at the concentrations of diluted A and B): Neither the protease nor the phenoxyethanol alone at these concentrations achieved a reduction
